Reference: US20170015742A1 (published 2017)

T1: recombinant cynomolgus PDGF-BB (cynomolgus monkey, UniProt P01127 82-190 (human entry), limits assumed)
T1 chain: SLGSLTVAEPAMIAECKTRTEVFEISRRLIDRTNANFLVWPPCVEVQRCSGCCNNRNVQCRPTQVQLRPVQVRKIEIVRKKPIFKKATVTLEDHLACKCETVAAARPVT


How the values were obtained:
Assay in all cases: cell-based or functional assay
[1] = molecular target: T1, recombinant cynomolgus PDGF-BB
recombinant rat PDGF-BB = recombinant rat PDGF-BB (rat, UniProt Q05028 74-182)
[2] = molecular target: recombinant murine PDGF-BB (mouse, UniProt P31240 82-190)
[3] = molecular target: recombinant human PDGF-BB (human, UniProt P01127 82-190)

recombinant murine PDGF-BB, sequence (P31240 82-190 limits assumed): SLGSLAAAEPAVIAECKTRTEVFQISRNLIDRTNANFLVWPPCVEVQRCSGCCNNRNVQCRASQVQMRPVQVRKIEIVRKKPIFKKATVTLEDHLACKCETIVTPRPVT
recombinant rat PDGF-BB, sequence (Q05028 74-182 limits assumed): as the sequence (P31240 82-190 limits assumed) above, with I83V, I102V counted along it

Binder	Potency IC50 (nM) cynoPDGF-BB (NIH-3T3 proliferation) [1] [nM]	Potency IC50 (nM) ratPDGF-BB (NIH-3T3 proliferation) (recombinant rat PDGF-BB) [nM]	Potency IC50 (nM) mPDGF-BB (NIH-3T3 proliferation) [2] [nM]	Co-incubation Potency IC50 (nM) hPDGF-BB (NIH-3T3 proliferation, DVD-Ig pre-incubated with excess hVEGF165) [3] [nM]
4G8.3-GS-9E8.4 (g) anti-VEGF-A/anti-PDGF-BB DVD-Ig (PR-1572102) (bispecific antibody, human IgG1, kappa, L234A L235A) heavy: EVQLVQSGSELKKPGASVKVSCKASGYTFTNYGMYWVRQAPGQGLEWMGWINTETGKPTYADDFKGRFVFSLDTSVSTAYLQISSLKAEDTAVYYCARTNYYYRSYIFYFDYWGQGTMVTVSSGGGGSGGGGSEVTLRESGPALVKPTQTLTLTCTFSGFSLSTYGMGVGWIRQPPGKALEWLANIWWDDDKYYNPSLKNRLTISKDTSKNQVVLTMTNMDPVDTATYYCARIESIGTTYSFDYWGQGTMVTVSSASTKGPSVFPLAPSSKSTSGGTAALGCLVKDYFPEPVTVSWNSGALTSGVHTFPAVLQSSGLYSLSSVVTVPSSSLGTQTYICNVNHKPSNTKVDKKVEPKSCDKTHTCPPCPAPEAAGGPSVFLFPPKPKDTLMISRTPEVTCVVVDVSHEDPEVKFNWYVDGVEVHNAKTKPREEQYNSTYRVVSVLTVLHQDWLNGKEYKCKVSNKALPAPIEKTISKAKGQPREPQVYTLPPSREEMTKNQVSLTCLVKGFYPSDIAVEWESNGQPENNYKTTPPVLDSDGSFFLYSKLTVDKSRWQQGNVFSCSVMHEALHNAYTQKSLSLSPGK light: DTVLTQSPATLSLSPGERATLSCRASESVSTHMHWYQQKPGQAPRLLIYGASNLESGVPARFSGSGSGTDFTLTISSLEPEDFAVYFCQQSWNDPFTFGQGTKLEIKRGGSGGGGSGEFVLTQSPGTLSLSPGERATLSCERSSGDIGDSYVSWYQQKPGQAPRLVIYADDQRPSGIPDRFSGSGSGTDFTLTISRLEPEDFAVYYCQSYDINIDIVFGGGTKVEIKRTVAAPSVFIFPPSDEQLKSGTASVVCLLNNFYPREAKVQWKVDNALQSGNSQESVTEQDSKDSTYSLSSTLTLSKADYEKHKVYACEVTHQGLSSPVTKSFNRGEC	0.139	2.2	0.174	0.051
hVEGF 4G8.3-GS-hPDGF 9E8.4 [hu IgG1/k] mut(234, 235) H435A (PR-1569574) (bispecific antibody) heavy: EVQLVQSGSELKKPGASVKVSCKASGYTFTNYGMYWVRQAPGQGLEWMGWINTETGKPTYADDFKGRFVFSLDTSVSTAYLQISSLKAEDTAVYYCARTNYYYRSYIFYFDYWGQGTMVTVSSGGGGSGGGGSEVTLRESGPALVKPTQTLTLTCTFSGFSLSTYGMGVGWIRQPPGKALEWLANIWWDDDKYYNPSLKNRLTISKDTSKNQVVLTMTNMDPVDTATYYCARIESIGTTYSFDYWGQGTMVTVSSASTKGPSVFPLAPSSKSTSGGTAALGCLVKDYFPEPVTVSWNSGALTSGVHTFPAVLQSSGLYSLSSVVTVPSSSLGTQTYICNVNHKPSNTKVDKKVEPKSCDKTHTCPPCPAPEAAGGPSVFLFPPKPKDTLMISRTPEVTCVVVDVSHEDPEVKFNWYVDGVEVHNAKTKPREEQYNSTYRVVSVLTVLHQDWLNGKEYKCKVSNKALPAPIEKTISKAKGQPREPQVYTLPPSREEMTKNQVSLTCLVKGFYPSDIAVEWESNGQPENNYKTTPPVLDSDGSFFLYSKLTVDKSRWQQGNVFSCSVMHEALHNAYTQKSLSLSPGK light: DTVLTQSPATLSLSPGERATLSCRASESVSTHMHWYQQKPGQAPRLLIYGASNLESGVPARFSGSGSGTDFTLTISSLEPEDFAVYFCQQSWNDPFTFGQGTKLEIKRGGSGGGGSGEFVLTQSPGTLSLSPGERATLSCERSSGDIGDSYVSWYQQKPGQAPRLVIYADDQRPSGIPDRFSGSGSGTDFTLTISRLEPEDFAVYYCQSYDINIDIVFGGGTKVEIKGTVAAPSVFIFPPSDEQLKSGTASVVCLLNNFYPREAKVQWKVDNALQSGNSQESVTEQDSKDSTYSLSSTLTLSKADYEKHKVYACEVTHQGLSSPVTKSFNRGEC	0.139	1.51	0.134	0.032
4G8.3-LS-9E8.4 (g) anti-VEGF-A/anti-PDGF-BB DVD-Ig (PR-1572106) (bispecific antibody, human IgG1, kappa, L234A L235A) heavy: EVQLVQSGSELKKPGASVKVSCKASGYTFTNYGMYWVRQAPGQGLEWMGWINTETGKPTYADDFKGRFVFSLDTSVSTAYLQISSLKAEDTAVYYCARTNYYYRSYIFYFDYWGQGTMVTVSSASTKGPSVFPLAPEVTLRESGPALVKPTQTLTLTCTFSGFSLSTYGMGVGWIRQPPGKALEWLANIWWDDDKYYNPSLKNRLTISKDTSKNQVVLTMTNMDPVDTATYYCARIESIGTTYSFDYWGQGTMVTVSSASTKGPSVFPLAPSSKSTSGGTAALGCLVKDYFPEPVTVSWNSGALTSGVHTFPAVLQSSGLYSLSSVVTVPSSSLGTQTYICNVNHKPSNTKVDKKVEPKSCDKTHTCPPCPAPEAAGGPSVFLFPPKPKDTLMISRTPEVTCVVVDVSHEDPEVKFNWYVDGVEVHNAKTKPREEQYNSTYRVVSVLTVLHQDWLNGKEYKCKVSNKALPAPIEKTISKAKGQPREPQVYTLPPSREEMTKNQVSLTCLVKGFYPSDIAVEWESNGQPENNYKTTPPVLDSDGSFFLYSKLTVDKSRWQQGNVFSCSVMHEALHNAYTQKSLSLSPGK light: DTVLTQSPATLSLSPGERATLSCRASESVSTHMHWYQQKPGQAPRLLIYGASNLESGVPARFSGSGSGTDFTLTISSLEPEDFAVYFCQQSWNDPFTFGQGTKLEIKRTVAAPEFVLTQSPGTLSLSPGERATLSCERSSGDIGDSYVSWYQQKPGQAPRLVIYADDQRPSGIPDRFSGSGSGTDFTLTISRLEPEDFAVYYCQSYDINIDIVFGGGTKVEIKRTVAAPSVFIFPPSDEQLKSGTASVVCLLNNFYPREAKVQWKVDNALQSGNSQESVTEQDSKDSTYSLSSTLTLSKADYEKHKVYACEVTHQGLSSPVTKSFNRGEC	0.094		0.14	
4G8.3-SL-9E8.4 (g) anti-VEGF-A/anti-PDGF-BB DVD-Ig (PR-1572105) (bispecific antibody, human IgG1, kappa, L234A L235A) heavy: EVQLVQSGSELKKPGASVKVSCKASGYTFTNYGMYWVRQAPGQGLEWMGWINTETGKPTYADDFKGRFVFSLDTSVSTAYLQISSLKAEDTAVYYCARTNYYYRSYIFYFDYWGQGTMVTVSSASTKGPEVTLRESGPALVKPTQTLTLTCTFSGFSLSTYGMGVGWIRQPPGKALEWLANIWWDDDKYYNPSLKNRLTISKDTSKNQVVLTMTNMDPVDTATYYCARIESIGTTYSFDYWGQGTMVTVSSASTKGPSVFPLAPSSKSTSGGTAALGCLVKDYFPEPVTVSWNSGALTSGVHTFPAVLQSSGLYSLSSVVTVPSSSLGTQTYICNVNHKPSNTKVDKKVEPKSCDKTHTCPPCPAPEAAGGPSVFLFPPKPKDTLMISRTPEVTCVVVDVSHEDPEVKFNWYVDGVEVHNAKTKPREEQYNSTYRVVSVLTVLHQDWLNGKEYKCKVSNKALPAPIEKTISKAKGQPREPQVYTLPPSREEMTKNQVSLTCLVKGFYPSDIAVEWESNGQPENNYKTTPPVLDSDGSFFLYSKLTVDKSRWQQGNVFSCSVMHEALHNAYTQKSLSLSPGK light: DTVLTQSPATLSLSPGERATLSCRASESVSTHMHWYQQKPGQAPRLLIYGASNLESGVPARFSGSGSGTDFTLTISSLEPEDFAVYFCQQSWNDPFTFGQGTKLEIKRTVAAPSVFIFPPEFVLTQSPGTLSLSPGERATLSCERSSGDIGDSYVSWYQQKPGQAPRLVIYADDQRPSGIPDRFSGSGSGTDFTLTISRLEPEDFAVYYCQSYDINIDIVFGGGTKVEIKRTVAAPSVFIFPPSDEQLKSGTASVVCLLNNFYPREAKVQWKVDNALQSGNSQESVTEQDSKDSTYSLSSTLTLSKADYEKHKVYACEVTHQGLSSPVTKSFNRGEC	0.142	1.3	0.096	0.047
hVEGF 4G8.3-SL-hPDGF 9E8.4 [hu IgG1/k] mut(234, 235) H435A (PR-1569579) (bispecific antibody) heavy: EVQLVQSGSELKKPGASVKVSCKASGYTFTNYGMYWVRQAPGQGLEWMGWINTETGKPTYADDFKGRFVFSLDTSVSTAYLQISSLKAEDTAVYYCARTNYYYRSYIFYFDYWGQGTMVTVSSASTKGPEVTLRESGPALVKPTQTLTLTCTFSGFSLSTYGMGVGWIRQPPGKALEWLANIWWDDDKYYNPSLKNRLTISKDTSKNQVVLTMTNMDPVDTATYYCARIESIGTTYSFDYWGQGTMVTVSSASTKGPSVFPLAPSSKSTSGGTAALGCLVKDYFPEPVTVSWNSGALTSGVHTFPAVLQSSGLYSLSSVVTVPSSSLGTQTYICNVNHKPSNTKVDKKVEPKSCDKTHTCPPCPAPEAAGGPSVFLFPPKPKDTLMISRTPEVTCVVVDVSHEDPEVKFNWYVDGVEVHNAKTKPREEQYNSTYRVVSVLTVLHQDWLNGKEYKCKVSNKALPAPIEKTISKAKGQPREPQVYTLPPSREEMTKNQVSLTCLVKGFYPSDIAVEWESNGQPENNYKTTPPVLDSDGSFFLYSKLTVDKSRWQQGNVFSCSVMHEALHNAYTQKSLSLSPGK light: DTVLTQSPATLSLSPGERATLSCRASESVSTHMHWYQQKPGQAPRLLIYGASNLESGVPARFSGSGSGTDFTLTISSLEPEDFAVYFCQQSWNDPFTFGQGTKLEIKRTVAAPSVFIFPPEFVLTQSPGTLSLSPGERATLSCERSSGDIGDSYVSWYQQKPGQAPRLVIYADDQRPSGIPDRFSGSGSGTDFTLTISRLEPEDFAVYYCQSYDINIDIVFGGGTKVEIKGTVAAPSVFIFPPSDEQLKSGTASVVCLLNNFYPREAKVQWKVDNALQSGNSQESVTEQDSKDSTYSLSSTLTLSKADYEKHKVYACEVTHQGLSSPVTKSFNRGEC	0.144	0.994	0.15	0.038
